In patent US20060263802A1 (CRUCELL HOLLAND B V, published 2006):

Tests used:
Experiment in all cases: PEPSCAN ELISA, looped 15-mer, 10 ug/ml
[1] = molecular target: looped peptide … (rabies virus strain ERA)
[2] = molecular target: looped peptide … (rabies virus strain ERA); remark: listed apart in the source
[3] = molecular target: looped peptide … (rabies virus strain ERA); remark: listed apart in the source
looped peptide […] [4] = molecular target: looped peptide […] (rabies virus strain ERA)
looped peptide […] [5] = molecular target: looped peptide […] (rabies virus strain ERA); remark: listed apart in the source
looped peptide […] [6] = molecular target: looped peptide […] (rabies virus strain ERA); remark: listed apart in the source
looped peptide […] [7] = molecular target: looped peptide […] (rabies virus strain ERA); remark: listed apart in the source
looped peptide […] [8] = molecular target: looped peptide […] (rabies virus strain ERA); remark: listed apart in the source
[9] = molecular target: looped peptide … (rabies virus strain ERA); remark: listed apart in the source
looped peptide […] [10] = molecular target: looped peptide […] (rabies virus strain ERA); remark: listed apart in the source
[11] = molecular target: looped peptide … (rabies virus strain ERA); remark: listed apart in the source
[12] = molecular target: looped peptide … (rabies virus strain ERA); remark: listed apart in the source
[13] = molecular target: looped peptide … (rabies virus strain ERA); remark: listed apart in the source

B1: human monoclonal antibody CRJA (antibody, V domains shown)
VH: EVQLLESGGGLVQPGGSLRLSCAASGFTFSNYAMSWVRQAPGKGLEWVSAISASGHSTYLADSVKGRFTISRDNSKNTLYLQMNSLRAEDTAVYYCAKDREVTMIVVLNGGFDYWGQGTRVTVSS
VL: EIVLTQSPATLSLSPGERATLACRASQTASRYLAWYQQKPGQAPRLLIYDTSNRATGIPARFSGSGSGTDFTLSISSLEPEDFAVYYCQQRFNWPWTFGQGTKVEFK
[1]
  OD value: 82
[2]
  OD value: 71
[3]
  OD value: 54
Looped peptide […] [4]
  OD value: 164
Looped peptide […] [5]
  OD value: 468
Looped peptide […] [6]
  OD value: 152
Looped peptide […] [7]
  OD value: 93
Looped peptide […] [8]
  OD value: 320
[9]
  OD value: 50
Looped peptide […] [10]
  OD value: 123
[11]
  OD value: 87
[12]
  OD value: 90
[13]
  OD value: 79
